This data set deals with the molecule itself. The data set can be described thus: SEC; peptide at 43, 85 or 150 uM incubated in aqueous buffer at pH 7.0 or 8.0 at 37°C with 180 rpm agitation, aliquots filtered (0.22 um) and run on Superose 12 10/300 or Superdex 75 10/300 at room temperature, 0.75 mL/min, elution buffer as incubation buffer; oligomer size from calibration with globular protein standards.

“And” between values parts separate entries of the source, which are not always exact repeats. Equal values may be shown once.

B1: Glucagon-like peptide 1, GLP-1(7–37) (peptide)
chain: HAEGTFTSDVSSYLEGQAAKEFIAWLVKGRG
notes: Glucagon-like peptide 1 (7-37), 31-residue peptide hormone cut from proglucagon; free C-terminus (-OH); 3355 Da; Forms non-covalent low-molecular-weight oligomers of varying size; written as the single chain
On to B1, for which the “stoichiometry N” value was 3 and 5.

(Values after article PMC10323027, “Glucagon-like peptide 1 aggregates into low-molecular-weight oligomers off-pathway to fibrillation” (Biophysical Journal, 2023).)
